Source: article PMC12079668, “Nanobodies against Cavin1 reveal structural flexibility and regulated interactions of its N-terminal coiled-coil domain” (Journal of Cell Science, 2025)

B1: mouse Cavin1 HR1 domain (residues 45–155) as crystallised with NbB7 (domain or fragment, UniProt O54724 45-155, looked up)
chain: LIKSDQVNGVLVLSLLDKIIGAVDQIQLTQAQLEERQAEMEGAVQSIQGELSKLGKAHATTSNTVSKLLEKVRKVSVNVKTVRGSLERQAGQIKKLEVNEAELLRRRNFKV
notes: mouse Cavin1 (PTRF), HR1 coiled-coil domain, residues 45-155 in the crystallised construct; residues 56-98 ordered; also called mC1-HR1; source: E. coli, purified (SEC)
B2: Nanobody NbB7 (VHH)
VHH: QVQLQESGGGLVQAGGSLRLSCAVSGIRVNVNAMYWYRQAPGKQRELVAIITTFGSTNYADSAKGRFTISRDNTKNTVYLQMDNLKPEDTAVYYCNAPQFTDRYWGQGTQVTVSS
notes: the same chain is in PDB 9EGN, 9EG6 and 9EIU; source: E. coli WK6, periplasmic expression, purified (TALON, SEC)
B3: nanobody NbB7 (VHH)
VHH: B2 VHH
notes: also in the deposited structures PDB 9EGN, 9EG6, 9EIU; alpaca nanobody raised against mC1-HR1; Cloned in pMES4 with a C-terminal 6x histidine tag; source: E. coli WK6, periplasmic expression, purified (TALON, SEC); not shown: His6, C-terminal, kept
B4: C-terminal GFP-tagged NbB7 (VHH)
VHH: B2 VHH
notes: as the VHH of m1; pEGFP-N1; also called NbB7–GFP; source: HeLa, transiently transfected, in lysate; not shown: GFP, C-terminal, kept
B5: Nanobody NbA12 (VHH)
VHH: QVQLQESGGGLVQAGGSLRLSCAASGFTFDDYAIGWFRQAPGKEREGVSCITSSDGSTYYADSVKGRFTISSDNAKNTVYLQMNSLKPEDTAVYYCAAESWPPLCHYSGMDYWGKGTQVTVSS
notes: Selected by phage display from an alpaca immunised with mC1-HR1; source: E. coli WK6, periplasmic expression, purified (TALON, SEC)
B6: nanobody NbA12 (VHH)
VHH: B5 VHH
notes: alpaca nanobody raised against mC1-HR1; Cloned in pMES4 with a C-terminal 6x histidine tag; source: E. coli WK6, periplasmic expression, purified (TALON, SEC); not shown: His6, C-terminal, kept

Columns and labels:
[1] = target: the molecule itself; experiment: crystal structure; complex formed with 1.5-fold molar excess of NbB7 and purified by SEC; hanging-drop vapour diffusion, 20°C; X-ray
[2] = target: T1, mouse Cavin1 HR1 H102I/T105I (HT/II) mutant (Mus musculus, UniProt O54724, H102I | T105I); experiment: ITC; 200 μM NbA12 or NbB7 titrated into 6.25 μM trimeric mC1-HR1 HT/II or TS/DD mutant; GF150 buffer, 25°C; single-site fit; details: both partners purified
T1 construct: mouse Cavin1 (PTRF), HR1 domain with H102I and T105I; also called mC1 HR1 HT/II mutant; mC1-HR1(HT/II); source: E. coli BL21 CodonPlus (DE3), purified (glutathione Sepharose, GST removed on-column with thrombin, SEC); not shown: GST, N-terminal, cleaved

[3] = target: T2, mouse Cavin1 HR1 T105D/S106D (TS/DD) mutant (Mus musculus, UniProt O54724, T105D | S106D); experiment: as above; details: both partners purified
T2 construct: mouse Cavin1 (PTRF), HR1 domain with T105D and S106D (phosphomimetic); also called mC1 HR1 TS/DD mutant; mC1-HR1(TS/DD); source: E. coli BL21 CodonPlus (DE3), purified (glutathione Sepharose, GST removed on-column with thrombin, SEC); not shown: GST, N-terminal, cleaved

[4] = target: T3, zebrafish Cavin4b HR1 domain (residues 12-133) (Danio rerio (Zebrafish) (Brachydanio …, UniProt Q5PQY9)); experiment: ITC; NbA12 at 500 μM or NbB7 at 400 μM titrated into 30 μM (monomer) cavin HR1 domain or His-MBP full-length mC1; GF150 buffer (20 mM HEPES pH 7.4, 150 mM NaCl), 25°C; fitted with a 1:1 binding ratio; details: both partners purified
T3 construct: zebrafish Cavin4b, HR1 domain, residues 12-133 (codon-optimised construct); also called zC4b-HR1; zC4b HR1; source: E. coli BL21 CodonPlus (DE3), purified (TALON, SEC)
T3 sequence (Q5PQY9 entry or part of it): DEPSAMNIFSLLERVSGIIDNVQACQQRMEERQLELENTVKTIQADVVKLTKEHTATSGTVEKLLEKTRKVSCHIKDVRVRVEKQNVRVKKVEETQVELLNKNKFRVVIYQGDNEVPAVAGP

[5] = target: T4, mouse Cavin1 HR1 Q76A (residues 45-155) (Mus musculus, UniProt O54724, Q76A); experiment: as above; details: both partners purified
T4 construct: mouse Cavin1 (PTRF), HR1 domain, residues 45-155, Q76A; also called mC1 HR1 Q76A; source: E. coli BL21(DE3)pLysS, purified (TALON, SEC)

[6] = target: T5, mouse Cavin1 HR1 domain H102I/T105I (HT/II) mutant (Mus musculus, UniProt O54724, H102I | T105I); experiment: ITC; 200 μM NbA12 or NbB7 titrated into 6.25 μM trimeric mC1-HR1 HT/II or TS/DD mutant; GF150 buffer, 25°C; single-site fit; details: both partners purified
T5 construct: mouse Cavin1 (PTRF), HR1 domain, residues 45-155, H102I/T105I; pGEX-4T2, GST removed with thrombin; also called mC1-HR1(HT/II); source: E. coli BL21 CodonPlus (DE3), purified (glutathione Sepharose, thrombin on-column, SEC); not shown: GST, N-terminal, cleaved

[7] = target: T6, mouse Cavin1 HR1 domain T105D/S106D (TS/DD) mutant (Mus musculus (Mouse)., UniProt O54724, T105D | S106D); experiment: as above; details: both partners purified
T6 construct: mouse Cavin1 (PTRF), HR1 domain, residues 45-155, T105D/S106D (phosphomimetic); pGEX-4T2, GST removed with thrombin; also called mC1-HR1(TS/DD); source: E. coli BL21 CodonPlus (DE3), purified (glutathione Sepharose, thrombin on-column, SEC); not shown: GST, N-terminal, cleaved

[8] = target: T7, zebrafish Cavin4b HR1 domain (Danio rerio, UniProt A0A8M1N3J3); experiment: ITC; NbA12 at 500 μM or NbB7 at 400 μM titrated into 30 μM (monomer) HR1 domain of cavins or His-MBP full-length mC1; GF150 buffer (20 mM HEPES pH 7.4, 150 mM NaCl), 25°C; single-site fit; details: both partners purified
T7 construct: zebrafish Cavin4b, HR1 domain; Codon-optimised construct; also called zC4b-HR1; source: E. coli BL21 CodonPlus (DE3), purified (TALON, SEC)

[9] = target: T8, mouse Cavin1 HR1 domain (residues 45–155), His-Ub-tagged (Mus musculus (Mouse)., UniProt O54724); experiment: as above; details: both partners purified
T8 construct: mouse Cavin1 (PTRF), HR1 coiled-coil domain, residues 45-155; pHUE vector; the methods say the His-Ub proteins were used for ITC; removal of the tag is not described; also called mC1-HR1; wild-type HR1 domain; source: E. coli BL21(DE3)pLysS, purified (TALON, SEC)

endogenous Cavin1 (HeLa) = target: T9, endogenous Cavin1 (HeLa) (Homo sapiens (Human)., UniProt Q6NZI2); experiment: co-IP; lysates of HeLa cells expressing NbA12–GFP or NbB7–GFP, GFP-binding nanobody on NHS-activated Sepharose; 0.5% Triton X-100; endogenous Cavin1 and CAV1 detected by western blot; details: partners not purified
T9 construct: Cavin1 (PTRF), endogenous in human HeLa cells; also called PTRF; source: endogenous, HeLa lysate
T9 sequence (Q6NZI2 whole entry): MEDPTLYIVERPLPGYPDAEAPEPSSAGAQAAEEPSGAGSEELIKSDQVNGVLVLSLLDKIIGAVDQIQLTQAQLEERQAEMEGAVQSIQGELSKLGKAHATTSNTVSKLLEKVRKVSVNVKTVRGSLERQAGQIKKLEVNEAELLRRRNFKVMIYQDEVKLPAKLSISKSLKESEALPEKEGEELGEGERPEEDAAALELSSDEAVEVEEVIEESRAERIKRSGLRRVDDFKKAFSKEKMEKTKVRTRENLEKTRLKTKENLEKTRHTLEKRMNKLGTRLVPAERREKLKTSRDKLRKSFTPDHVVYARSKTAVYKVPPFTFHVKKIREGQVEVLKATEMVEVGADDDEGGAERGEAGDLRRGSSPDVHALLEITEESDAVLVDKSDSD

endogenous CAV1 (HeLa) = target: T10, endogenous CAV1 (HeLa) (Homo sapiens (Human)., UniProt Q03135); experiment: as above; details: partners not purified
T10 construct: CAV1 (caveolin 1), endogenous in human HeLa cells; also called caveolin 1; source: endogenous, HeLa lysate
T10 sequence (Q03135 whole entry): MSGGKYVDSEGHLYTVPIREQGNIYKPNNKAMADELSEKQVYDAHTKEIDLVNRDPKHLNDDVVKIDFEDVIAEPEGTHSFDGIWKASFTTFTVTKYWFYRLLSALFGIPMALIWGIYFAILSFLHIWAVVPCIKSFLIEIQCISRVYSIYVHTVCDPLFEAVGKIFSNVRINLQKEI

[10] = target: T11, zebrafish Cavin4a HR1 domain (residues 16-123) (Danio rerio, UniProt A1L260); experiment: ITC; NbA12 at 500 μM or NbB7 at 400 μM titrated into 30 μM (monomer) cavin HR1 domain or His-MBP full-length mC1; GF150 buffer (20 mM HEPES pH 7.4, 150 mM NaCl), 25°C; fitted with a 1:1 binding ratio; details: both partners purified
T11 construct: zebrafish Cavin4a, HR1 domain, residues 16-123 (codon-optimised construct); also called zC4a-HR1; zC4a HR1; source: E. coli BL21 CodonPlus (DE3), purified (TALON, SEC)
T11 sequence (A1L260 16-123): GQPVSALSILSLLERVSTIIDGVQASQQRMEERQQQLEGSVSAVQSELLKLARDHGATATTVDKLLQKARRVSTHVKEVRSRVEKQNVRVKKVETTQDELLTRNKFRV

[11] = target: T12, GST-tagged mouse Cavin1 HR1 domain (Mus musculus (Mouse)., UniProt O54724); experiment: pull-down; GST–mC1-HR1 (1 nmol) as bait on glutathione Sepharose, His-tagged nanobodies (2 nmol) as prey; 20 mM HEPES, 150 mM NaCl, 1 mM DTT, 0.1% IGEPAL, pH 7.4; 4°C; SDS-PAGE; details: both partners purified
T12 construct: mouse Cavin1 (PTRF), HR1 coiled-coil domain, residues 45-155; pGEX-4T2 with thrombin site; GST kept for the pull-down and the liposome pelleting assay; also called GST–mC1-HR1; GST-tagged mC1-HR1; source: E. coli BL21 CodonPlus (DE3), purified (glutathione Sepharose); not shown: GST, N-terminal, kept

[12] = target: T13, zebrafish Cavin4a HR1 domain (Danio rerio, UniProt A1L260); experiment: ITC; NbA12 at 500 μM or NbB7 at 400 μM titrated into 30 μM (monomer) HR1 domain of cavins or His-MBP full-length mC1; GF150 buffer (20 mM HEPES pH 7.4, 150 mM NaCl), 25°C; single-site fit; details: both partners purified
T13 construct: zebrafish Cavin4a, HR1 domain; Codon-optimised construct; also called zC4a-HR1; source: E. coli BL21 CodonPlus (DE3), purified (TALON, SEC)
T13 sequence (A1L260 whole entry, looked up, the tested form may be a part): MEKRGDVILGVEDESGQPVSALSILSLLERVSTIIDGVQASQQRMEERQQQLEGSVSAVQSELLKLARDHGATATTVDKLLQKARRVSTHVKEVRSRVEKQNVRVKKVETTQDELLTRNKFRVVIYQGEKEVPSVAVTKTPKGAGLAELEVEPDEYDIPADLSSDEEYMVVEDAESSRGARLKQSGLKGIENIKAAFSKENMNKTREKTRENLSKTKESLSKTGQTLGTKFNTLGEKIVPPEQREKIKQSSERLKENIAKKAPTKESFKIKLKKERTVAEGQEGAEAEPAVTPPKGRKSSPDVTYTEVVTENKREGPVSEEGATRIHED

[13] = target: T14, N-terminal fragment of mouse Cavin1 HR1 domain (residues 45–103) (Mus musculus (Mouse)., UniProt O54724); experiment: as above; details: both partners purified
T14 construct: mouse Cavin1 (PTRF), N-terminal part of the HR1 domain, residues 45-103; also called mC1-HR1(45–103); shorter fragment of mC1-HR1; source: E. coli BL21(DE3)pLysS, purified (TALON, SEC)

[14] = target: T15, full-length mouse Cavin1, His-MBP-tagged (Mus musculus (Mouse)., UniProt O54724); experiment: as above; details: both partners purified
T15 construct: mouse Cavin1 (PTRF), full length; also called His-MBP full-length mC1; full-length MBP-tagged mC1; source: E. coli BL21(DE3)pLysS, purified (TALON, SEC)
T15 sequence (O54724 whole entry): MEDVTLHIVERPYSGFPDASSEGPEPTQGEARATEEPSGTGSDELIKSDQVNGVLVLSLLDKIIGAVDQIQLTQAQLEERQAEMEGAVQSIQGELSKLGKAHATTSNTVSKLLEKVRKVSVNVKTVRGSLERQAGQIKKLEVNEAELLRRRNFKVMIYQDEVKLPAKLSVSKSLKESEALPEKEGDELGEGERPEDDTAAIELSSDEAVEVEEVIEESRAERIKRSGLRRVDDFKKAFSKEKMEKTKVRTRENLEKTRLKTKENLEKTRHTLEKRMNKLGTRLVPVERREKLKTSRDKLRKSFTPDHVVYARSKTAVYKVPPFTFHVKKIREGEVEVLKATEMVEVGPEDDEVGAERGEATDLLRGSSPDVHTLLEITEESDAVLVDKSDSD

| Binder | Kd [2] [nM] | Kd [3] [nM] | binding result [4] | Kd [6] [nM] | Kd [7] [nM] | binding result [8] | further results |
| --- | --- | --- | --- | --- | --- | --- | --- |
| B1 | – | – | – | – | – | – | stoichiometry N [1]: 3 |
| B2 | 140 ± 40 | 67 ± 20 | no binding | – | – | – | Kd [5]: 2890 ± 1010 nM |
| B3 | – | – | – | 142 | 66.7 | no binding | Kd [9]: 520 nM |
| B4 | – | – | – | – | – | – | binding result (endogenous Cavin1 (HeLa)): binds; binding result (endogenous CAV1 (HeLa)): binds |
| B5 | 3020 ± 1940 | 2170 ± 20 | no binding | – | – | – | binding result [10]: no binding |
| B6 | – | – | – | 3000 | 2000 | no binding | binding result [11]: binds; binding result [12]: no binding; binding result [9]: binds; binding result [13]: binds; binding result [14]: binds |
